Test results as given in PMC11466669 (The Journal of Biological Chemistry, 2024).

B1: Mobile HJ (MST) (structured_DNA)
DNA 1: GACGCTGCCGAATTCTACCAGTGCCTTGCTAGGACATCTTTGCCCACCTGCAGGTTCACCC
DNA 2: TGGGTGAACCTGCAGGTGGGCAAAGATGTCCTAGCAATGTAATCGTCAAGCTTTATGCCGTT
DNA 3: CAACGGCATAAAGCTTGACGATTACATTGCTAGGACATGCTGTCTAGAGGATCCGACTATCGA
DNA 4: ATCGATAGTCGGATCCTCTAGACAGCATGTCCTAGCAAGGCACTGGTAGAATTCGGCAGCGT
B2: Mycobacterium smegmatis RuvC (enzyme)
chain: MRVMGVDPGLTRCGLSMIESGKGRQVIALDVDVVRTPADTPLQKRLLTISDAAEHWMDTHRPDVIAIERVFANQNANTAMGTAQAGGVIALAAAKRDIEVHFHTPSEVKAAVTGSGRADKSQVTEMVTRILALQAKPTPADAADALALAICHCWRAPMIARMAAAEAMAEEQRRKFQAKIKAARG
B3: MsRuvC-E68A (enzyme)
chain: MRVMGVDPGLTRCGLSMIESGKGRQVIALDVDVVRTPADTPLQKRLLTISDAAEHWMDTHRPDVIAIARVFANQNANTAMGTAQAGGVIALAAAKRDIEVHFHTPSEVKAAVTGSGRADKSQVTEMVTRILALQAKPTPADAADALALAICHCWRAPMIARMAAAEAMAEEQRRKFQAKIKAARG
B4: MsRuvC-D7A (enzyme)
chain: MRVMGVAPGLTRCGLSMIESGKGRQVIALDVDVVRTPADTPLQKRLLTISDAAEHWMDTHRPDVIAIERVFANQNANTAMGTAQAGGVIALAAAKRDIEVHFHTPSEVKAAVTGSGRADKSQVTEMVTRILALQAKPTPADAADALALAICHCWRAPMIARMAAAEAMAEEQRRKFQAKIKAARG

What was measured:
[1] = molecular target: T1, MsRuvC WT (Mycobacterium smegmatis mc2 155) (UniProt A0QWH4); assay: SPR
T1 sequence: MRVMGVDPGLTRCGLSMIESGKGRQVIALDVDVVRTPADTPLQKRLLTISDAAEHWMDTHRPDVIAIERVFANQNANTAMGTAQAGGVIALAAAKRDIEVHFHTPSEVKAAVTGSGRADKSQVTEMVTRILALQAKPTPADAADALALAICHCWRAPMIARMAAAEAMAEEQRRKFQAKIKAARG

MsRuvC-D7A = molecular target: T2, MsRuvC-D7A (Mycobacterium smegmatis mc2 155, UniProt A0QWH4 1-185, D7A); assay: MST
T2 sequence: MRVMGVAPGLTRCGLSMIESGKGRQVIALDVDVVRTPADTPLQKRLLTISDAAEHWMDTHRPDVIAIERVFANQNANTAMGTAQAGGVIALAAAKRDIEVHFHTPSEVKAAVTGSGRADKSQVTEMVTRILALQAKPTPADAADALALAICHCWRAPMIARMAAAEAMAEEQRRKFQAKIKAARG

MsRuvC-E68A = molecular target: T3, MsRuvC-E68A (Mycobacterium smegmatis mc2 155, UniProt A0QWH4 1-185, E68A); assay: MST
T3 sequence: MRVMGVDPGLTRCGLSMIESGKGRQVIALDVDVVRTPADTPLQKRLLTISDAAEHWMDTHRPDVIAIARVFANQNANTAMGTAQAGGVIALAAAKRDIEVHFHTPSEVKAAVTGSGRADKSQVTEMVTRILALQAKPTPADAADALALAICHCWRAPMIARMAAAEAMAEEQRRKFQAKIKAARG

MsRuvC WT = molecular target: T4, MsRuvC WT (Mycobacterium smegmatis mc2 155, UniProt A0QWH4 1-185); assay: MST
T4 sequence: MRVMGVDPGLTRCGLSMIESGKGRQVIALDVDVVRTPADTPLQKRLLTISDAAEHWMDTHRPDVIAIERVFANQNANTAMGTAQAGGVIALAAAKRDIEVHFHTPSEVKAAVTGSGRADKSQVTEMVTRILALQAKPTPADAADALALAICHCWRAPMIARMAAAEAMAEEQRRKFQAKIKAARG

SEC = molecular target: the molecule itself; assay: SEC

| Molecule | Kd [1] [nM] | stoichiometry N (SEC) | other results |
| --- | --- | --- | --- |
| 3'-flap structure (SPR) | 296 |  |  |
| 5'-flap structure | 410 |  |  |
| Replication fork | 203 |  |  |
| Splayed-arm duplex | 480 |  |  |
| dsDNA with 3'-ssDNA overhang | 263 |  |  |
| dsDNA with 5'-ssDNA overhang | 201 |  |  |
| B1 |  |  | Kd (MsRuvC-D7A): 650 ± 170 nM; Kd (MsRuvC-E68A): 300 ± 110 nM; Kd (MsRuvC WT): 580 ± 270 nM |
| B2 |  | 2 |  |
| B3 |  | 2 |  |
| B4 |  | 2 |  |
